15 sequences from PMC9458429 can be followed below.

Test in all cases: filter binding
In data set [1] the test system is 30S ribosomal subunit (Escherichia coli MRE600). Conditions: Filter binding: 50 nM 32P-RNA in TAKM5 buffer (composition not given), 15 min at 37 C, nitrocellulose filtration, fluorescence titrations: pyrene, ex 341 nm ….
Data set [2] has as its system 70S ribosome (Escherichia coli MRE600). Conditions: Filter binding: 50 nM 32P-RNA in TAKM5 buffer (composition not given), 15 min at 37 C, nitrocellulose filtration, fluorescence titrations: pyrene, ex 341 nm ….
Data set [3] concerns 40S ribosomal subunit ((HeLa cells)). The note with it: Filter binding: 50 nM 32P-RNA in TAKM5 buffer (composition not given), 15 min at 37 C, nitrocellulose filtration; fluorescence titrations: pyrene, ex 341 nm ….

One may read the Kd as the free concentration of one partner at which half of the binding sites on the other are occupied at equilibrium, for simple one-to-one binding. High values mean lower affinity, low ones higher affinity. In the case of “AAAGCAAAAAUGUGAUCUUGCUUGUAAAUACAAUUUUGAGAGGUUAAUAAAUUACAAGUAGUGCUAUUUUUGUAUUUAGGUUAGCUAUUUAGCUUUACGUUCCAGGAUGCCUAGUGGCAGCCCCACAAUAUCCAGGAAGCGGAGAGUGCGGUUUUUCAGAUUAGGUAGUCGAAAAACCUAAGAAAUUUACCUGCUACAUUUCAAGAUAAA [CrPV IGR IRES PK2_K/O]”, the equilibrium dissociation constant (Kd) was 74 nM in data set [1] and 100 nM in data set [2].

In data set [1] (only 10% bound), “GCGCGGAUGCUCAGUCGGUAGAGCAGGGGAUUGAAAAUCCCCGUGUCCUUGGUUCGAUUCCGAGUCCGCGCACCA [tRNAPhe]” showed a Kd of 35 nM.

As to “AAAGCAAAAAUGUGAUCUUGCUUGUAAAUACAAUUUUGAGAGGUUAAUAAAUUACAAGUAGUGCUAUUUUUGUAUUUAGGUUAGCUAUUUAGCUUUACGUUCCAGGAUGCCUAGUGGCAGCCGGUGAAUAUCCAGGAAGCCCUCUCUGCGGUUUUUCAGAUUAGGUAGUCGAAAAACCUAAGAAAUUUAGGUGCUACAUUUCAAGAUAAA [CrPV IGR IRES PK1+3_K/O]”, the Kd in data set [1] came to 52 nM; in data set [2] it was 78 nM.

As to “GAGCGGUUUCUGGAAUACUAUAUGUAAGUAUAGUGUUCUGGAGGCAUCAUUCUAUGGUUACCCAUCAUUAGAGGAAAUUUCCAAUAAACUCUGGUGUAAGGCUUAGAGUGAUGGUCGAGGUGCCCUAUUUAGGGUGAGGAGCCUCGGUGGCAGCCCCUGGAAAUCCUCUAUUGGAUAGGAACAGCUGUACUGGGCAGUUACAGCAGUCGUAUGGUAACACAUGCGGCGUUCCGAAAUACCAUGCCUGGCGAUUCACAACAAGAA [IAPV IGR IRES PK3_K/O]”, the results for the Kd in data set [1] and in data set [2] were 103 nM and 59 nM, respectively.

Take “GGUACGAGUAGAAUACUGCCGCUUAACGUCGCGUAAAUUGUUUAACACUUUGCGUAACGUACACUGGGAUCGCUGAAUUAGAGAUCGGCGUCCUUUCAUUCUAUAUACUUUGGAGUUUUAAAAUGUCUCAAGUACUGAAGCAACAGCUAAAAUCGUUUCUGAGUUUGGUCGUGACGCAAACGACACC [rpsO 5' UTR RNA]”: the Kd turned out to be 10 nM in data set [1] (39% bound) and 94 nM in data set [2] (44% bound).

Take “AAAGCAAAAAUGUGAUCUUGCUUGUAAAUACAAUUUUGAGAGGUUAAUAAAUUACAAGUAGUGCUAUUUUUGUAUUUAGGUUAGCUAUUUAGCUUUACGUUCCAGGAUGCCUAGUGGCAGCCCCACAAUAUCCAGGAAGCCCUCUCUGCGGUUUUUCAGAUUAGGUAGUCGAAAAACCUAAGAAAUUUACCUGCUACAUUUCAAGAUAAA [CrPV IGR IRES WT]”: the results for the Kd in data set [3], in data set [1] and in data set [2] were 14 nM, 110 nM and 69 nM, respectively.

In the case of “GAGCGGUUUCUGGAAUACUAUAUGUAAGUAUAGUGUUCUGGAGGCAUCAUUCUAUGGUUACCCAUCAUUAGAGGAAAUUUCCAAUAAACUCUGGUGUAAGGCUUAGAGUGAUGGUCGAGGUGCCCUAUUUAGGGUGAGGAGCCUCGGUGGCAGCCCCUGGAAAUCCUCUAUUGGAUAGGAACAGCUGUACUGGGCAGUUACAGCAGUCGUAUGGUAACACAUGCGGCGUUCCGAAAUACCAUGGGUGGCGAUUCACAACAAGAA [IAPV IGR IRES PK1+3_K/O]”, the figures for the Kd in data set [1] and in data set [2] were 80 nM and 65 nM, respectively.

Turning to “AAAGCAAAAAUGUGAUCUUGCUUGUAAAUACAAUUUUGAGAGGUUAAUAAAUUACAAGUAGUGCUAUUUUUGUAUUUAGGUUAGCUAUUUAGCUUUACGUUCCAGGAUGCCUAGUGGCAGCCCCACAAUAUCCAGGAAGCCCUCUCUGCGGUUUUUCAGAUUAGGUAGUCGAAAAACCUAAGAAAUUUAGGUGCUACAUUUCAAGAUAAA [CrPV IGR IRES PK1_K/O]”, the Kd in data set [3] came out at 4 nM; in data set [1], 55 nM; in data set [2] it was 92 nM.

“GAGCGGUUUCUGGAAUACUAUAUGUAAGUAUAGUGUUCUGGAGGCAUCAUUCUAUGGUUACCCAUCAUUAGAGGAAAUUUCCAAUAAACUCUGGUGUAAGGCUUAGAGUGAUGGUCGAGGUGCCCUAUUUAGGGUGAGGAGCCUCGGUGGCAGCCCCACCAAAUCCUCUUAACCAUAGGAACAGCUGUACUGGGCAGUUACAGCAGUCGUAUGGUAACACAUGCGGCGUUCCGAAAUACCAUGCCUGGCGAUUCACAACAAGAA [IAPV IGR IRES PK2_K/O]”: the Kd was 81 nM in data set [1] and 59 nM in data set [2].

As to “GGAUACGCACAAUAAGGCUAUUGUACGUAUGCAAAUUAAUAAUAAAGGAGAGUAGCAAUGUCAUUCGAAUUACCUGCACUACCAUAUGCUAAAGAUGCUCUGGCACCGCACAUUUCUGCGG [sodB 5' UTR RNA]”, the figures for the Kd in data set [1] (41% bound) and in data set [2] (56% bound) were 13 nM and 47 nM, respectively.

On to “GAGCGGUUUCUGGAAUACUAUAUGUAAGUAUAGUGUUCUGGAGGCAUCAUUCUAUGGUUACCCAUCAUUAGAGGAAAUUUCCAAUAAACUCUGGUGUAAGGCUUAGAGUGAUGGUCGAGGUGCCCUAUUUAGGGUGAGGAGCCUCGGUGGCAGCCCCACCAAAUCCUCUAUUGGAUAGGAACAGCUGUACUGGGCAGUUACAGCAGUCGUAUGGUAACACAUGCGGCGUUCCGAAAUACCAUGGGUGGCGAUUCACAACAAGAA [IAPV IGR IRES PK1_K/O]”, for which the Kd in data set [1] was 87 nM; in data set [2], 67 nM.

With “GAGCGGUUUCUGGAAUACUAUAUGUAAGUAUAGUGUUCUGGAGGCAUCAUUCUAUGGUUACCCAUCAUUAGAGGAAAUUUCCAAUAAACUCUGGUGUAAGGCUUAGAGUGAUGGUCGAGGUGCCCUAUUUAGGGUGAGGAGCCUCGGUGGCAGCCCCUGGAAAUCCUCUUAACCAUAGGAACAGCUGUACUGGGCAGUUACAGCAGUCGUAUGGUAACACAUGCGGCGUUCCGAAAUACCAUGGGUGGCGAUUCACAACAAGAA [IAPV IGR IRES PK1+2+3_K/O]”, the Kd in data set [1] was found to be 73 nM; in data set [2], 72 nM.

For the sequence “AAAGCAAAAAUGUGAUCUUGCUUGUAAAUACAAUUUUGAGAGGUUAAUAAAUUACAAGUAGUGCUAUUUUUGUAUUUAGGUUAGCUAUUUAGCUUUACGUUCCAGGAUGCCUAGUGGCAGCCCGUGAAUAUCCAGGAAGCCCUCUCUGCGGUUUUUCAGAUUAGGUAGUCGAAAAACCUAAGAAAUUUACCUGCUACAUUUCAAGAUAAA [CrPV IGR IRES PK3_K/O]”, the dissociation constant Kd in data set [1] stood at 48 nM; in data set [2], 90 nM.

Regarding “GAGCGGUUUCUGGAAUACUAUAUGUAAGUAUAGUGUUCUGGAGGCAUCAUUCUAUGGUUACCCAUCAUUAGAGGAAAUUUCCAAUAAACUCUGGUGUAAGGCUUAGAGUGAUGGUCGAGGUGCCCUAUUUAGGGUGAGGAGCCUCGGUGGCAGCCCCACCAAAUCCUCUAUUGGAUAGGAACAGCUGUACUGGGCAGUUACAGCAGUCGUAUGGUAACACAUGCGGCGUUCCGAAAUACCAUGCCUGGCGAUUCACAACAAGAA [IAPV IGR IRES WT]”, the equilibrium dissociation constant (Kd) in data set [1] turned out to be 93 nM; in data set [2], 50 nM.

Regarding “AAAGCAAAAAUGUGAUCUUGCUUGUAAAUACAAUUUUGAGAGGUUAAUAAAUUACAAGUAGUGCUAUUUUUGUAUUUAGGUUAGCUAUUUAGCUUUACGUUCCAGGAUGCCUAGUGGCAGCCGGUGAAUAUCCAGGAAGCGGAGAGUGCGGUUUUUCAGAUUAGGUAGUCGAAAAACCUAAGAAAUUUAGGUGCUACAUUUCAAGAUAAA [CrPV IGR IRES PK1+2+3_K/O]”, the Kd in data set [1] is 48 nM; in data set [2], 79 nM.
